Reference: patent US20250009750A1, “METHODS OF TREATING DISORDERS ASSOCIATED WITH EYA OVEREXPRESSION AND MUTATIONS” (The Board of Regents of the University of Texas System, priority 2023, published 2025)
Entries after “also recorded” stand apart in the source; their conditions may differ. Blank lines part the entries; values can stand above or below the molecule they belong to.

Tests used:
cells depleted for EYA4 = assay: MTT cell cytotoxicity assay, genotoxic stress (ATR inhibitor or hydroxyurea); type: cell-based; details: EYA4-depleted versus control cells, FIG. 21B, FIG. 22A
Experimental: For genotoxic stress, cells were seeded into 96-well plates (200 cells/well). Twenty-four hours after seeding, increasing concentrations of ATR inhibitor (AZ20) or hydroxyurea were added to the culture (24 h pulse). Cell cytotoxicity was measured after 96 h following manufacturer's protocol (Abcam ab211091). Briefly, 50 μL serum-free media (no phenol red) and 50 μL MTT reagent was added to each well and incubated at 37° C. for 3 h. MTT media was replaced with 150 μL of MTT solvent and incubated with agitation for 15 mn. Absorbance was measured at 590 nm. The cell viability was calculated using the following equation: […]

TKCC02.1 cells = assay: Survival of TKCC02.1 cells, alone and in combination; type: cell-based; details: TKCC02.1, at doses tested, FIG. 35, FIG. 36
Experimental: Similar doses of EYA4i were tested alone and in combination with PARPi (olaparib) or Camptothecin (CPT).

[1] = tested on: HeLa cells (empty vector or knocked down for EYA4); assay: MTT cell cytotoxicity assay with PARP inhibitor; type: cell-based; details: EYA4-depleted versus control cells, FIG. 5D
Experimental: HeLa cells (empty vector or knocked down for EYA4) were seeded in 96-well plates. After 24 hrs, increasing concentrations of PARP inhibitor (olaparib) were added. Cell cytotoxicity was measured following manufacturer's protocol (Abcam ab211091). Briefly, 50 μL serum-free media and 50 μL MTT reagent was added to each well and incubated at 37° C. for 3 hrs. MTT media was replaced with 150 μL of MTT solvent and incubated with agitation for 15 min. Absorbance was measured at 590 nm.

RAD51 Y54F,Y315F [2] = molecular target: T1, RAD51 Y54F,Y315F (UniProt Q06609 Q06609:1-339, Y54F,Y315F); assay: MST; +/- 7.3 nM, Hill 3.31; details: tags: pET11 construct, E. coli BLR(DE3)pLysS; label: Cy5
RAD51 WT [3] = molecular target: T2, RAD51 WT (UniProt Q06609 Q06609:1-339); assay: MST; +/- 18.1 nM, Hill 2.66; details: tags: pET11 construct, E. coli BLR(DE3)pLysS; label: Cy5
T2 sequence (Q06609 whole entry, one chain of several): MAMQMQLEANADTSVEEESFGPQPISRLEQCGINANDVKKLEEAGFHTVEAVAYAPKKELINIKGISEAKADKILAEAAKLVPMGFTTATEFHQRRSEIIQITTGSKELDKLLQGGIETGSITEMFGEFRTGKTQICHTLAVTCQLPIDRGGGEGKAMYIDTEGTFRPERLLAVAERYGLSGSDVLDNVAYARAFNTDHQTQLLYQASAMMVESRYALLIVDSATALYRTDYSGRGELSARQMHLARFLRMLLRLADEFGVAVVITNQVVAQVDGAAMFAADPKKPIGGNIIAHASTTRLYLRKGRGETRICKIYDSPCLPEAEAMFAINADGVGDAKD

RAD51 Y54F,Y315F [4] = molecular target: T1, RAD51 Y54F,Y315F; assay: MST; +/- 11.7 nM, Hill 7.07; details: tags: pET11 construct, E. coli BLR(DE3)pLysS; label: Cy5 on P1
RAD51 WT [5] = molecular target: T2, RAD51 WT; assay: MST; +/- 162.5 nM, Hill 2.30; details: tags: pET11 construct, E. coli BLR(DE3)pLysS; label: Cy5 on P1
RAD51 Y54D,Y315D = RAD51 Y54D,Y315D (UniProt Q06609 Q06609:1-339, Y54D,Y315D); assay: MST; +/- 0.4951 uM, Hill 2.67; details: tags: pET11 construct, E. coli BLR(DE3)pLysS; label: Cy5 on P1
cy5-labeled ssDNA = assay: Microscale thermophoresis (MST) DNA binding, ssDNA
Experimental: (§1) A total of 12 concentrations of ligand proteins (e.g., EYA (1-365)) were serially diluted by 1:1 using MST buffer from 5 uM to 2.4 nM, 10 ul of each dose of ligand protein was mixed with 10 ul of cy5-labeled dsDNA/ssDNA supernatant. The mixture of EYA and DNA was loaded into premium capillaries for MST assay with parameters set up at auto-detected excitation power and medium MST power. Binding affinity was analyzed by MO. Affinity Analysis software (version 2.1.3, NanoTemper Technologies) using the signal from an MST-on time of 20 s. Three individual experiments were merged to generate standard deviation.
(§2) Cy5-labeled oligo P1 (T. T. Paull Curr Opin Genet Dev 71, 55-62 (2021)). from IDT ([…]-[…]; SEQ ID NO:1) was used as the ssDNA substrate. dsDNA was generated by annealing Cy5-labeled oligo P1 with its exact complement P2 […]-AAATAAGTAAAAG […] (SEQ ID NO:2). The annealed product was purified by SDS-PAGE then concentrated and quantified. For the long system assays, substrates were sourced from NEB. The ssDNA is the ϕX174 virion DNA and the dsDNA its replicative form ϕX174 RF I DNA.

cy5-labeled dsDNA = assay: Microscale thermophoresis (MST) DNA binding, dsDNA
Experimental: as §1, §2

[6] = EYA4 constructs binding ssDNA, Table 4
[7] = EYA4 constructs binding dsDNA, Table 4
[8] = RAD51 proteins binding ssDNA, Table 5
[9] = RAD51 proteins binding dsDNA, Table 5

Molecule: C[C@@H]1COCCN1c1cc(C2(S(C)(=O)=O)CC2)nc(-c2cccc3[nH]ccc23)n1 [AZ20]
sensitivity of cells depleted for EYA4 (MTT) (cells depleted for EYA4): sensitive

Molecule: CC[C@@]1(O)C(=O)OCc2c1cc1n(c2=O)Cc2cc3ccccc3nc2-1 [CPT]
lethality / efficacy as single agent (TKCC02.1 cells): not lethal; also recorded: neither PARPi nor CPT are lethal

Molecule: O=C(c1cc(Cc2n[nH]c(=O)c3ccccc23)ccc1F)N1CCN(C(=O)C2CC2)CC1 [Olaparib]
lethality / efficacy as single agent (TKCC02.1 cells; listed as PARPi): not lethal; also recorded: neither PARPi nor CPT are lethal
sensitivity of cells depleted for EYA4 (survival, MTT) [1]: sensitive

Molecule: NC(=O)NO [hydroxyurea]
sensitivity of cells depleted for EYA4 (MTT) (cells depleted for EYA4): sensitive

B1: oligo P1 ssDNA (ssDNA)
DNA: TTATATCCTTTACTTTGAATTCTATGTTTAACCTTTTACTTATTTTGTATTAGCCGGATCCTTATTTCAATTATGTTCAT
EC50 (RAD51 Y54F,Y315F [2]): 427 nM
EC50 (RAD51 WT [3]): 515 nM

B2: P1/P2 dsDNA (dsDNA)
DNA 1: TTATATCCTTTACTTTGAATTCTATGTTTAACCTTTTACTTATTTTGTATTAGCCGGATCCTTATTTCAATTATGTTCAT
DNA 2: ATGAACATAATTGAAATAAGGATCCGGCTAATACAAAATAAGTAAAAGGTTAAACATAGAATTCAAAGTAAAGGATATAA
EC50 (RAD51 Y54F,Y315F [4]): 561 nM
EC50 (RAD51 WT [5]): 1160 nM
EC50 (RAD51 Y54D,Y315D): 3070 nM

EC50 (cy5-labeled ssDNA; [6]): 303 nM
Kd (cy5-labeled ssDNA; ssDNA binding, FIG. 3C): 303 nM
EC50 (cy5-labeled dsDNA; [7]): 733 nM
Kd (cy5-labeled dsDNA; dsDNA binding, FIG. 3C): 732 nM
B3: 1-365: N-terminally m-cherry-tagged EYA4 (aa 1-365), purified (protein, UniProt O95677 1-365, looked up, fragment)
chain: MEDSQDLNEQSVKKTCTESDVSQSQNSRSMEMQDLASPHTLVGGGDTPGSSKLEKSNLSSTSVTTNGTGGENMTVLNTADWLLSCNTPSSATMSLLAVKTEPLNSSETTATTGDGALDTFTGSVITSSGYSPRSAHQYSPQLYPSKPYPHILSTPAAQTMSAYAGQTQYSGMQQPAVYTAYSQTGQPYSLPTYDLGVMLPAIKTESGLSQTQSPLQSGCLSYSPGFSTPQPGQTPYSYQMPGSSFAPSSTIYANNSVSNSTNFSGSQQDYPSYTAFGQNQYAQYYSASTYGAYMTSNNTADGTPSSTSTYQLQESLPGLTNQPGEFDTMQSPSTPIKDLDERTCRSSGSKSRGRGRKNNPSPPPD
modifications: N-terminal mCherry tag
notes: N-terminally m-cherry-tagged EYA4 (aa 1-365), purified

EC50 (cy5-labeled ssDNA; [6]): 515 nM
Kd (cy5-labeled dsDNA; DNA (type not stated), FIG. 3E): > 2000 nM
EC50 (cy5-labeled dsDNA; [7]): 2200 nM
B4: SQTQ: phosphomimetic EYA4 double mutant in the ATM-ATR consensus site SQTQ (S209D, T211D) (protein, UniProt O95677 1-639, looked up, variant S209D T211D)
Protein phosphatase EYA4: MEDSQDLNEQSVKKTCTESDVSQSQNSRSMEMQDLASPHTLVGGGDTPGSSKLEKSNLSSTSVTTNGTGGENMTVLNTADWLLSCNTPSSATMSLLAVKTEPLNSSETTATTGDGALDTFTGSVITSSGYSPRSAHQYSPQLYPSKPYPHILSTPAAQTMSAYAGQTQYSGMQQPAVYTAYSQTGQPYSLPTYDLGVMLPAIKTESGLDQDQSPLQSGCLSYSPGFSTPQPGQTPYSYQMPGSSFAPSSTIYANNSVSNSTNFSGSQQDYPSYTAFGQNQYAQYYSASTYGAYMTSNNTADGTPSSTSTYQLQESLPGLTNQPGEFDTMQSPSTPIKDLDERTCRSSGSKSRGRGRKNNPSPPPDSDLERVFVWDLDETIIVFHSLLTGSYAQKYGKDPPMAVTLGLRMEEMIFNLADTHLFFNDLEECDQVHIDDVSSDDNGQDLSTYSFATDGFHAAASSANLCLPTGVRGGVDWMRKLAFRYRRVKELYNTYKNNVGGLLGPAKRDAWLQLRAEIEGLTDSWLTNALKSLSIISTRSNCINVLVTTTQLIPALAKVLLYSLGGAFPIENIYSATKIGKESCFERIMQRFGRKVVYVVIGDGVEEEQAAKKHNMPFWRISSHSDLLALHQALELEYL

EC50 (cy5-labeled ssDNA; [8]): 515 nM
EC50 (cy5-labeled dsDNA; [9]): 1160 nM
B5: WT: purified wild type RAD51 (protein, UniProt Q06609 2-339, looked up)
DNA repair protein RAD51 …: AMQMQLEANADTSVEEESFGPQPISRLEQCGINANDVKKLEEAGFHTVEAVAYAPKKELINIKGISEAKADKILAEAAKLVPMGFTTATEFHQRRSEIIQITTGSKELDKLLQGGIETGSITEMFGEFRTGKTQICHTLAVTCQLPIDRGGGEGKAMYIDTEGTFRPERLLAVAERYGLSGSDVLDNVAYARAFNTDHQTQLLYQASAMMVESRYALLIVDSATALYRTDYSGRGELSARQMHLARFLRMLLRLADEFGVAVVITNQVVAQVDGAAMFAADPKKPIGGNIIAHASTTRLYLRKGRGETRICKIYDSPCLPEAEAMFAINADGVGDAKD

EC50 (cy5-labeled ssDNA; [8]): 427 nM
EC50 (cy5-labeled dsDNA; [9]): 561 nM
B6: YF, YF: double-mutant RAD51 (Y54F, Y315F) that cannot be phosphorylated (protein, UniProt Q06609 2-339, looked up, variant Y54F Y315F)
DNA repair protein RAD51 …: AMQMQLEANADTSVEEESFGPQPISRLEQCGINANDVKKLEEAGFHTVEAVAFAPKKELINIKGISEAKADKILAEAAKLVPMGFTTATEFHQRRSEIIQITTGSKELDKLLQGGIETGSITEMFGEFRTGKTQICHTLAVTCQLPIDRGGGEGKAMYIDTEGTFRPERLLAVAERYGLSGSDVLDNVAYARAFNTDHQTQLLYQASAMMVESRYALLIVDSATALYRTDYSGRGELSARQMHLARFLRMLLRLADEFGVAVVITNQVVAQVDGAAMFAADPKKPIGGNIIAHASTTRLYLRKGRGETRICKIFDSPCLPEAEAMFAINADGVGDAKD

EC50 (cy5-labeled ssDNA; [8]): > 5000 nM
EC50 (cy5-labeled dsDNA; [9]): 3070 nM
B7: YD, YD: double phospho-mimetic RAD51 (Y54D, Y315D) (protein, UniProt Q06609 2-339, looked up, variant Y54D Y315D)
DNA repair protein RAD51 …: AMQMQLEANADTSVEEESFGPQPISRLEQCGINANDVKKLEEAGFHTVEAVADAPKKELINIKGISEAKADKILAEAAKLVPMGFTTATEFHQRRSEIIQITTGSKELDKLLQGGIETGSITEMFGEFRTGKTQICHTLAVTCQLPIDRGGGEGKAMYIDTEGTFRPERLLAVAERYGLSGSDVLDNVAYARAFNTDHQTQLLYQASAMMVESRYALLIVDSATALYRTDYSGRGELSARQMHLARFLRMLLRLADEFGVAVVITNQVVAQVDGAAMFAADPKKPIGGNIIAHASTTRLYLRKGRGETRICKIDDSPCLPEAEAMFAINADGVGDAKD
